Laboratory results reported in the supplement of paper PMC9170038.

Tested on: MS2 coat protein
Assay: apparent KD of MS2 coat protein; designed switch direction (-1 OFF switch, 1 ON switch): 1; higher = weaker reporter binding
Procedure, shortened: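 The apparent KD reported per design is the median over clusters of curve fits to normalised cluster fluorescence. The RNA switches were transcribed on Illumina chips by stalled E. coli RNA polymerase. SNAP-549-labelled MS2 coat protein was titrated from 0.7 or 1.5 nM, doubling up to 3 µM, in Tris-HCl pH 7.5 buffer containing KCl, MgCl2, BSA, DTT, tRNA and Tween-20, with no input, 200 uM small-molecule ligand, or an oligonucleotide input.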

[1] = input ligand: microRNA oligo, concentration not stated
[2] = Eterna round: R95, input ligand: FMN 200 uM
[3] = Eterna round: R95, input ligand: microRNA oligo, concentration not stated
[4] = Eterna round: R95, input ligand: none

Sequence | apparent KD of MS2 coat protein (input ligand: FMN 200 uM) [nM] | apparent KD of MS2 coat protein [1] [nM] | apparent KD of MS2 coat protein (input ligand: none) [nM] | apparent KD of MS2 coat protein [2] [nM] | apparent KD of MS2 coat protein [3] [nM] | apparent KD of MS2 coat protein [4] [nM]
AUUGCUUACGCAGGAUAUGAUGCGAAAAUUGCGUCAGAAGGGUGAAGUGACUCGUAGCAACAAGACAUGAGGAUCACCCAUGUC [SameState NG1 #93] (Eterna round: R96, puzzle: Same State NG 1) | 28.2 | 26.4 | 42.1 | – | – | –
AUUGGGUAACGAGGAUAUCGUAUUUGUUUGUUUCGAGAAGGCGUUAUAGUUUCUUUCUAUUGUUACAUGAGGAUCACCCAUGUU [JR_SSNG1_Sub052] (Eterna round: R96, puzzle: Same State NG 1) | 19.1 | 15 | 19.9 | – | – | –
AUUGUUUAUGCAGGAUAUGAUUAACAUGAGGAUCACCCAUGUGGUGUUGUGAGUAAGGAGAGUGAUCAGAAGGGCAUUUUUUUU [JMF's solution 69] (Eterna round: R96, puzzle: Same State NG 2) | 735 | 273 | 411 | – | – | –
AUUUAACAAGCUUUUUGCUCGUCUUAUAAACAUGAGGAUCACCCAUGUAAUAGCGUGAGAGUAAAUUAUUAAAUAAU [JMF 91] (puzzle: Sensor for hsa-mir-208a) | – | – | – | 13 | 39.9 | 11.9
AUUUCUAAUGCAGGAUAUGAUUAACAUGAGGAUCACCCAUGUGGUGUUGUGAGUAAGGAGAGUGAUCAGAAGGGCAUUUUUUUU [JMF's solution 99] (Eterna round: R96, puzzle: Same State NG 2) | 915 | 428 | 579 | – | – | –
AUUUGCGCUAUAGGAUAUGGCAGGGUGAACCAGCCAGAAGGAUAAGUAGGGAGGUGACAUGAGGAUCACCCAUGUAAUAAGGAA [Eternabot solution 6] (Eterna round: R96, puzzle: Same State NG 1) | 330 | 290 | 378 | – | – | –
AUUUUAGUCAGAGGAUAUUGUUUAUCUCUAUUACAAGAAGGCUGAUCUUACUACCCACUUAUGAAACAUGAGGAUCACCCAUGU [JR_SSNG1_Sub016] (Eterna round: R96, puzzle: Same State NG 1) | 17.4 | 20.6 | 25.8 | – | – | –
AUUUUUAAUGCAGGAUAUGAUUAACAUGAGGAUCACCCAUGUGGUGUUGUGAGUAAGGAGAGUGAUCAGAAGGGCAUUUUUGUU [JMF's solution 85] (Eterna round: R96, puzzle: Same State NG 2) | 686 | 466 | 715 | – | – | –
CACAAUCUAUCUGAGGAUAUCAUGAAAAAAACAUGAGGAUCACCCAUGUGCAGGAAAACUGCAUAUGAGAAGGCAGAUAGAUUGU [salish99_SS2_r3_015] (Eterna round: R96, puzzle: Same State 2) | – | 514 | – | – | – | –
CACAAUCUAUCUGAGGAUAUCAUGAAAAAAACAUGAGGAUCACCCAUGUGCAGGAAAACUGCAUAUGAGAAGGCAGAUAGAUUGU [salish99_SS2_r3_015] (puzzle: Same State 2) | – | – | – | 28.3 | 720 | 913
CACAUGAGGAUCACCCAUGUGAGGCGGCAAUAAAACCGCGCACAGGAUAUAGCGCUAAGAAUGCGCUAGAAGGGUGAUUAGAAC [Esenla] (Eterna round: R96, puzzle: Same State NG 3) | 746 | 10.4 | 39.2 | – | – | –
CAGCGCUGUCGAGAGGAUAUGCGGUGAUGGACAUGAGGAUCACCCAUGUUAGCGACAGCAUCACGGCAGAAGGCUCUACCGCCUG [Soteed Omei mod 43] (puzzle: Same State 2) | – | – | – | 17.9 | 22.4 | 32.3
CAGUACUGUCGAGAGGAUAUGCGGUGAUGGACAUGAGGAUCACCCAUGUUAGCGACAGCAUCACGGCAGAAGGCUCUACUGCUGC [Soteed Omei mod 33] (puzzle: Same State 2) | – | – | – | – | 39.4 | –
CAGUGCUGUCGAGAGGAUAUGCGGUGAUGGACAUGAGGAUCACCCAUGUUAGCGACAGCGUUACGGCAGAAGGCUCUACCCACUG [Soteed Omei mod 47] (puzzle: Same State 2) | – | – | – | 62.5 | 28.7 | 42.7
CAUCCCUCCACAGGAUAUCGACCGAUAAAACGGCGAGAAGGGUGGCCACAUGAGGAUCACCCAUGUGGAAUUGGAUGAGCUACA [Enlaed] (Eterna round: R96, puzzle: Same State NG 1) | 78.7 | 66.6 | 126 | – | – | –
CAUCUCCCUUUUACAUGAGGAUCACCCAUGUUUUCAUAUUGAGAGGAUAUCGUAUUUGGAAACAUCGAGAAGGCUCAUUUGUAU [JR_SSNG3_Sub073] (Eterna round: R96, puzzle: Same State NG 3) | – | 345 | – | – | – | –

Sequence | apparent KD of MS2 coat protein (input ligand: FMN 200 uM) [nM] | apparent KD of MS2 coat protein [1] [nM] | apparent KD of MS2 coat protein (input ligand: none) [nM] | apparent KD of MS2 coat protein [2] [nM] | apparent KD of MS2 coat protein [3] [nM] | apparent KD of MS2 coat protein [4] [nM]
CCAUAACAGUGAGGAUAUUGUUGCGAUAAGUGACGAGAAGGCAUUCAUGUGAAAUAAACAUACAUGAGGAUCACCCAUGUUGUA [Omei SS(NG)1 Bv2] (Eterna round: R96, puzzle: Same State NG 1) | 17.9 | 19.8 | 26.7 | – | – | –
CCAUGGUAACAUGAGGAUCACCCAUGUACAAGCUUUUUGCUCGUUUUAUUUAUUAUUAUUAUUAUUAUUAUUAUUAA [Nishu_Seq1] (puzzle: Sensor for hsa-mir-208a version 2) | – | – | – | 33.5 | 105 | 86.6
CCCUCAUGCAGGCUAACACGCUUGUUUUAACAUGAGGAUCACCCAUGUACGUCGCCGUUUCGUGCGGGACGCGCAGA [Anuscear] (Eterna round: R96, puzzle: Sensor for hsa-mir-208a) | 363 | 229 | 169 | – | – | –
CCCUUCGGCACAUGAGGAUCACCCAUGUUUUAGUUGAAGAGGUAGGAUAUGGCUGGGAGCGGAAGCCAGAAGGACCAAGUGAGU [Lareonge] (Eterna round: R96, puzzle: Same State NG 3) | 7.76 | 8.41 | 12.6 | – | – | –
CCGAAAUAUGGAGGAUAUGGAGCCUUAUUGGCUCCAGAAGGUCAAAACAUGAGGAUCACCCAUGUAUCGGCGGUCAAUAGACCG [Eli NG1ss - 73] (Eterna round: R96, puzzle: Same State NG 1) | 123 | 81.7 | 171 | – | – | –
CCGAUAAAUGGAGGAUAUGGAGCCUUAUUGGCUCCAGAAGGCUAAUAACAUGAGGAUCACCCAUGUCGGCGGUCUAAUGACCGA [Eli NG1ss - 51] (Eterna round: R96, puzzle: Same State NG 1) | – | 46.4 | – | – | – | –
CCGCUAAAUGGAGGAUAUGGAGCCUUAUUGGCUCCAGAAGGUCAAAACAUGAGGAUCACCCAUGUGCGGCGGUCUAAUGACCGA [Eli NG1ss - 48] (Eterna round: R96, puzzle: Same State NG 1) | – | 122 | – | – | – | –
CCGGAUAAUGGAGGAUAUGGAGCCUUAUUGGCUCCAGAAGGCUAACAUGAGGAUCACCCAUGUAAUCCGGCGGUCAAUAGACCG [Eli NG1ss - 65] (Eterna round: R96, puzzle: Same State NG 1) | 12 | 15 | 25.5 | – | – | –
CCGGUUUAUGGAGGAUAUGGAGCCUUAUUGGCUCCAGAAGGCUAAUACAUGAGGAUCACCCAUGUUCCGGCGGUCAAUAGACCG [Eli NG1ss - 58] (Eterna round: R96, puzzle: Same State NG 1) | 23.9 | 77.8 | 126 | – | – | –
CCGUUCAAUAAACAUGAGGAUCACCCAUGUAAUAAUAAGGGUGAGGAUAUGCAUCUGAAACAGGUGCAGAAGGCAUAAGAGCGG [JL SSNG3 3.90] (Eterna round: R96, puzzle: Same State NG 3) | 487 | 289 | 585 | – | – | –
CGACCAAUUGUUUAAUAAACAUGAGGAUCACCCAUGUUUCGUGAGGAUAUCUAGGGUGAAGCACGGGAGAAGGCACUACGGUCA [Eternabot solution 21] (Eterna round: R96, puzzle: Same State NG 3) | 142 | 120 | 134 | – | – | –
CGCCCGAAUGAAGGAUAUGGUACAACACGAUGAUCAGAAGGUUAUUAAAGUGGGUGAUGCCGACAUGAGGAUCACCCAUGUUGG [Eternabot solution 40] (Eterna round: R96, puzzle: Same State NG 1) | 53.1 | 60 | 66.9 | – | – | –
CGGCGCUGUCGAGAGGAUAUGCGGUGAUGGACAUGAGGAUCACCCAUGUUAGCGAUAGCAUUACGGUAGAAGGCUCUACAGCUGC [Soteed Omei mod 4] (puzzle: Same State 2) | – | – | – | – | 27.9 | –
CGGGUACAUGAGGAUCACCCAUGUAGAAGAGAUGCAGGAUAUGUGGGAAAAGGGAAUGUAACAGAAGGGCAAGGAG [JR_SS!_Sub017] (puzzle: Same State 1) | – | – | – | 47.4 | 56.1 | 94.1
CGGUGAGAGACAGGAUAUCGAGCCUAACGAGGCCGAGAAGGGUCGCCCGAAGCGACCGACAUGAGGAUCACCCAUGUAGAAAGA [Eternabot solution 21] (Eterna round: R96, puzzle: Same State NG 1) | 34.2 | 30 | 40.4 | – | – | –
CGUCCGGCCUGAGCUGGUCGGAAGCAUGUACAUGAGGAUCACCCAUGUUCAUGUGCAGGCUUUUUGCUCGUCUUGUG [salish99_mir208a_modof_jandersonlee_004] (puzzle: Sensor for hsa-mir-208a) | – | – | – | 39.8 | 13.1 | 39.6
